# Assay results as given in the supplement of paper PMC10724198.
# Key:
# Saccharomyces cerevisiae [1] = experiment: protein stability index of tFT-peptide fusion in wild type (PSI (0-1 scale)); higher = more stable (slower turnover); details: genetic background: wild type
# Description: (§1)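 MPS profiling in S. cerevisiae of two library types built from selected 12-aa C-degron peptides (IN1, IN2, LN1, LN3, VN2, R1-R5, W1-W3, Atg1 and Rpa12 C-termini): saturation mutagenesis libraries and C-terminal +1 capping libraries (13 aa). Each peptide is fused to the C-terminus of a sfGFP-mCherry timer, after a GGGS linker. Cells are FACS-sorted into 8 mCherry/sfGFP bins and sequenced. PSI runs from 0 (unstable) to 1 (stable), measured once in wild type and in the das1Δ or doa10Δ background.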
# Saccharomyces cerevisiae [2] = experiment: protein stability index of tFT-peptide fusion in deletion strain of DAS1 (PSI (0-1 scale)); higher = more stable (slower turnover)
# Description: as §1
# 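For protein stability index of tFT-peptide fusion in deletion strain of DAS1 in this document: PSI is a weighted mean of each variant's read distribution over the sorted stability bins, computed only for variants having over 10 reads in total.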
# 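For protein stability index of tFT-peptide fusion in wild type in this document: PSI derived as read-weighted mean over the 8 sorting bins, only variants exceeding 10 total reads kept, mCherry placed adjacent to the peptide and sfGFP distal.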
Sequence,protein stability index (Saccharomyces cerevisiae [1]),protein stability index (Saccharomyces cerevisiae [2])
VRGAVGPWRLVG,0.138,0.687
RLIQCLPVQFLN,0.0457,0.571
FSMRWTERYWVN,0.0612,0.572
PSLWASFWRVVG,0.103,0.697
VRGAVGGWHLVG,0.286,0.671
VKGAVGGWRLVG,0.149,0.691
CTSCGNKFRTNN,0.52,0.695
LVVYLSCVVCIN,0.0309,0.0986
ARWPVGLWRGAS,0.399,0.703
VRGAVGGWRLVV,0.16,0.675
FSMRWTFPYWVN,0.079,0.601
LVVYLRCVACIN,0.0199,0.0318
RSIQPLPVQFLN,0.0915,0.643
FSMRWTFRTWVN,0.181,0.475
VRGAIGGWRLVG,0.157,0.684
LVVYLSWVACIN,0.0137,0.0348
PDKRNHTIKLLN,0.176,0.582
LKILRQKMNHQNW,0.659,0.67
RLIQLLPVQFLN,0.0564,0.635
LVVYVSCVACIN,0.0192,0.0341
CRSCGYKFRTNN,0.243,0.708
LKILRQKYNHQN,0.189,0.7
PDKRMHLIKLLN,0.0774,0.592
FSMMWTFRYWVN,0.0586,0.354
PSLAASQWRVVG,0.184,0.668
KKHKMGQKQKIN,0.0496,0.623
CTSCMYKFRTNN,0.207,0.689
PPLAASFWRVVG,0.165,0.673
LVVYLSCVACIY,0.0122,0.0359
